Our source for the IC50 values is patent US20130007923A1.

Assay [1] has as its target BBMV proteins (brush border membrane vesicles) from fall armyworm (FAW; Spodoptera frugiperda) larval midgut (Spodoptera frugiperda). Description: heterologous competition: unlabeled Cry1Ca against 0.5 nM 125I Cry1Da (competitor pair Cry1Da/BBMV) on FAW BBMVs; reflects no displacement at Cry1Da sites, not lack of Cry1Ca binding to BBMVs.
Assay [2] shares this target. Briefly: homologous competition: unlabeled Cry1Da against 0.5 nM 125I Cry1Da on FAW BBMVs.

By IC50 is commonly meant the point on the concentration scale where inhibition reaches its midpoint. As to “Cry1Ca (purified truncated Cry toxin) (from UniProt P0A376 28-618)”, in assay [1], the IC50 is > 1000 nM. As to “Cry1Da (purified truncated Cry toxin) (from UniProt P19415 28-594)”, the IC50 in assay [2] was determined as 1.5 nM.
